Our source for the Km and Vmax values is ChEMBL document CHEMBL1123179, “4-Amino-2-(substituted methyl)-2-butenoic acids: substrates and potent inhibitors of gamma-aminobutyric acid aminotransferase” (J Med Chem, 1986).

Holding throughout (conditions): Sus scrofa
One series has as its system NC/C=C(\CF)C(=O)O. Kind of series: (§1) Compound was tested for the inhibitory effect against Gamma-amino-N-butyrate transaminase from pig brain, activity expressed as Km.
For series [1], the system named is NC/C=C(\CO)C(=O)O. The series is described as §1.
Series [2] deals with NC/C=C(\CO)C(=O)O. As to the kind of experiment: Compound was tested for the inhibitory effect against Gamma-amino-N-butyrate transaminase from pig brain, activity expressed as Vmax.

Sequence of 4-aminobutyrate aminotransferase, mitochondrial (Sus scrofa), P80147 (P80147 whole entry): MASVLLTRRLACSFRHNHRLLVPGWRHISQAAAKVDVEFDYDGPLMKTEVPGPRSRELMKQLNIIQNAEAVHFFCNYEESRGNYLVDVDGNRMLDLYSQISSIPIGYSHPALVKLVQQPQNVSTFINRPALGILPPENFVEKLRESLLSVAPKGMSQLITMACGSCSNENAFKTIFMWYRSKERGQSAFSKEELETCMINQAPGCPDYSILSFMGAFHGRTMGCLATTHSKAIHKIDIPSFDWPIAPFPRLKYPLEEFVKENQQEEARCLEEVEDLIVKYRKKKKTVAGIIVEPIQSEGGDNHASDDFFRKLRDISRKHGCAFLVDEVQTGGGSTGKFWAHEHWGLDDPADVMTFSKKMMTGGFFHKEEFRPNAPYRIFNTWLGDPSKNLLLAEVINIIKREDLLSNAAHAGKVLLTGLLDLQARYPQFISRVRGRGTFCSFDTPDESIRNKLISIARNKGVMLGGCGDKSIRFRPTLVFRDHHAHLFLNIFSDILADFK

For “4-aminobutyrate aminotransferase, mitochondrial (Sus scrofa), P80147”, the values for the Michaelis constant (Km) in the series on NC/C=C(\CF)C(=O)O and in the series with NC/C=C(\CO)C(=O)O [1] were 140 µM and 10 µM, respectively. The Vmax (usually the top rate of the reaction or transport when substrate is in excess) with NC/C=C(\CO)C(=O)O [2] turned out to be 0.012 µM/min/mg.
